Data: PMC9482650, “Quantitative fragmentomics allow affinity mapping of interactomes” (Nature Communications, 2022)

How the values were obtained:
Test in all cases: holdup assay
Set-up in all cases: key: below the threshold = too weak to quantify, mostly under pKd 3.1 to 4
TJP1_2, Q07157 = biological target: TJP1_2, Q07157
LNX2_3, Q8N448 = biological target: T1, LNX2_3, Q8N448
T1 sequence (Q8N448 463-564, limits assumed, looked up): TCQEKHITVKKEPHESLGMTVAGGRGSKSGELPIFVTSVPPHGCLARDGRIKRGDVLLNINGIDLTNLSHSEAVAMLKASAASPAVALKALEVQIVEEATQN

SNTB1, Q13884 = biological target: T2, SNTB1, Q13884
T2 sequence (Q13884 107-205, limits assumed, looked up): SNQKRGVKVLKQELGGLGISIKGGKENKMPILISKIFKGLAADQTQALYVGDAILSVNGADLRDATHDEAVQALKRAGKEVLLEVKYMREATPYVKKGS

GORASP1, Q9BQQ3 = biological target: GORASP1, Q9BQQ3
GORASP1, Q9BQQ3, sequence (Q9BQQ3 1-208): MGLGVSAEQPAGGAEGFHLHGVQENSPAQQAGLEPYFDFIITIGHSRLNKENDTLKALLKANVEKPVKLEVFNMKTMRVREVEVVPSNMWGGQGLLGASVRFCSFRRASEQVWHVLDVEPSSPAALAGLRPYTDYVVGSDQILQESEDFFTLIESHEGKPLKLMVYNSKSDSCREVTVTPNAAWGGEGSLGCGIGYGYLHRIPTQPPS

Inadl_2, Q8NI35 = biological target: Inadl_2, Q8NI35
Inadl_2, Q8NI35, sequence (Q8NI35 238-335): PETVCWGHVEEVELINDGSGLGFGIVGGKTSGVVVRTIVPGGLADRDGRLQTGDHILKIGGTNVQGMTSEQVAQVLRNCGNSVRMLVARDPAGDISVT

SCRIB_2, Q14160 = biological target: SCRIB_2, Q14160
SCRIB_2, Q14160, sequence (Q14160 857-960): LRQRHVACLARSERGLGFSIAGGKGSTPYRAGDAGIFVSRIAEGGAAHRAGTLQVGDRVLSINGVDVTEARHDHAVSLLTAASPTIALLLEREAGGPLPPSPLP

DFNB31_3, Q9P202 = biological target: T3, DFNB31_3, Q9P202
T3 sequence (Q9P202 811-907, limits assumed, looked up): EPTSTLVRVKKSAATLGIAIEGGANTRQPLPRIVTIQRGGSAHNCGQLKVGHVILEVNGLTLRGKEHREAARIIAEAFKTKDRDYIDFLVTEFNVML

LIN7C, Q9NUP9 = biological target: T4, LIN7C, Q9NUP9
T4 sequence (Q9NUP9 88-185, limits assumed, looked up): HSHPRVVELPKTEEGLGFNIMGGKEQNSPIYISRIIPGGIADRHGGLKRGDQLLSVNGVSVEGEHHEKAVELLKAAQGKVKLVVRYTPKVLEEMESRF

NHERF4_1, Q86UT5-2 = biological target: NHERF4_1, Q86UT5-2
NHERF4_1, Q86UT5-2, sequence (Q86UT5 other isoform, or with tags, fused parts or gaps): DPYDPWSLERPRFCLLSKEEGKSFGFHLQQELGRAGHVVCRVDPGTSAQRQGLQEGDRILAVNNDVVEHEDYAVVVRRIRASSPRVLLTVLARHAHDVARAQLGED

MAGI3_2, Q5TCQ9 = biological target: MAGI3_2, Q5TCQ9
MAGI3_2, Q5TCQ9, sequence (Q5TCQ9 398-503): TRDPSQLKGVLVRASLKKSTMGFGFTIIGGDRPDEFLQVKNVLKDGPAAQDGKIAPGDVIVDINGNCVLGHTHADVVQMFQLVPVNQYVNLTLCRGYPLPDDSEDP

LNX1_1, Q8TBB1 = biological target: LNX1_1, Q8TBB1
LNX1_1, Q8TBB1, sequence (Q8TBB1 261-371): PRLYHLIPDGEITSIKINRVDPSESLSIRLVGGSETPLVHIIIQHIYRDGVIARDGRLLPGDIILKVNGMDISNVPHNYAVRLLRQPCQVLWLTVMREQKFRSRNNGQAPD

PICK1, Q9NRD5 = biological target: PICK1, Q9NRD5
PICK1, Q9NRD5, sequence (Q9NRD5 17-115): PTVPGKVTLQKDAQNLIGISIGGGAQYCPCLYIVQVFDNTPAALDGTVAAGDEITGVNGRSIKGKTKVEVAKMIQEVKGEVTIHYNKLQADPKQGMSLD

DLG5_1, Q8TDM6 = biological target: DLG5_1, Q8TDM6
DLG5_1, Q8TDM6, sequence (Q8TDM6 617-713): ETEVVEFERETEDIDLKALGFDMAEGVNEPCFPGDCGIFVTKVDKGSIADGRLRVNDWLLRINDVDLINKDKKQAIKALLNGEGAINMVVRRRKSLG

GRIP2_5, Q9C0E4 = biological target: GRIP2_5, Q9C0E4
GRIP2_5, Q9C0E4, sequence (Q9C0E4 544-642): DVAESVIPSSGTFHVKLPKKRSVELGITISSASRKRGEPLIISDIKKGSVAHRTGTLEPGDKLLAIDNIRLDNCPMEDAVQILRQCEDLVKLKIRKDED

MPP7, Q5T2T1 = biological target: T5, MPP7, Q5T2T1
T5 sequence (Q5T2T1 134-230, limits assumed, looked up): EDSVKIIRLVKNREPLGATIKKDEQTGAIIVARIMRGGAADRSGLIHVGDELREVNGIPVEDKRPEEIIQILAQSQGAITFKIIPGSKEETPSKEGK

GRIP2_7, Q9C0E4 = biological target: GRIP2_7, Q9C0E4
GRIP2_7, Q9C0E4, sequence (Q9C0E4 934-1023): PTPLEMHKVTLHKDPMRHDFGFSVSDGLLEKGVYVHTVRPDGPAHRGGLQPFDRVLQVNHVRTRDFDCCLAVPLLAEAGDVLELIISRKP

HTRA2, O43464 = biological target: HTRA2, O43464
HTRA2, O43464, sequence (O43464 355-458): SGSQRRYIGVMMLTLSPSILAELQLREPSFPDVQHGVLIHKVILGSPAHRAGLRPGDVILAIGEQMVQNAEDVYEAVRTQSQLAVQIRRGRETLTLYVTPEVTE

MPDZ_10, O75970 = biological target: T6, MPDZ_10, O75970
T6 sequence (O75970 1624-1722, limits assumed, looked up): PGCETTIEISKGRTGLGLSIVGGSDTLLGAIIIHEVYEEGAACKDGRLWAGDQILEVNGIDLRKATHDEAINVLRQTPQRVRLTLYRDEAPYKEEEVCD

Inadl_10, Q8NI35 = biological target: Inadl_10, Q8NI35
Inadl_10, Q8NI35, sequence (Q8NI35 1673-1763): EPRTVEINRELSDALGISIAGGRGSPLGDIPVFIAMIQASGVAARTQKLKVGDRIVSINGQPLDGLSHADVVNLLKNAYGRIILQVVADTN

TJP1_3, Q07157 = biological target: TJP1_3, Q07157
TJP1_3, Q07157, sequence (Q07157 416-512): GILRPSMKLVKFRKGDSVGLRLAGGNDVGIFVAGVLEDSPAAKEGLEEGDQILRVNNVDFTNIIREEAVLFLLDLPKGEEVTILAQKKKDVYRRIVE

GRID2IP_2, A4D2P6 = biological target: GRID2IP_2, A4D2P6
GRID2IP_2, A4D2P6, sequence (A4D2P6 272-370): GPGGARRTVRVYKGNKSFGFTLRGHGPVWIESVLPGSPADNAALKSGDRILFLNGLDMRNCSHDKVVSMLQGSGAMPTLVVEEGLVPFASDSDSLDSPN

CASK, O14936 = biological target: CASK, O14936
CASK, O14936, sequence (O14936 487-570): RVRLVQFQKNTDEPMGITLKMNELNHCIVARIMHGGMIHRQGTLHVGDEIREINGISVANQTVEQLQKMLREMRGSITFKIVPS

GRID2IP_1, A4D2P6 = biological target: GRID2IP_1, A4D2P6
GRID2IP_1, A4D2P6, sequence (A4D2P6 1-87): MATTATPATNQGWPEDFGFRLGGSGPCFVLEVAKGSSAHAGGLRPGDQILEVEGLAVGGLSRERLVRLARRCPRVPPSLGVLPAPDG

DFNB31_2, Q9P202 = biological target: T7, DFNB31_2, Q9P202
T7 sequence (Q9P202 274-371, limits assumed, looked up): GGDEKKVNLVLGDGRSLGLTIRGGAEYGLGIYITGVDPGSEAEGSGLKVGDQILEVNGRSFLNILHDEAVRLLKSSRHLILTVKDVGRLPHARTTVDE

GRIP1_7, Q9Y3R0 = biological target: T8, GRIP1_7, Q9Y3R0
T8 sequence (Q9Y3R0 999-1096, limits assumed, looked up): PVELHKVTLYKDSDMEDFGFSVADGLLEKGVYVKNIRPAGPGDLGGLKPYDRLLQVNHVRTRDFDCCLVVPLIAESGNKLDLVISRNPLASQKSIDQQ

Inadl_1, Q8NI35 = biological target: Inadl_1, Q8NI35
Inadl_1, Q8NI35, sequence (Q8NI35 113-229): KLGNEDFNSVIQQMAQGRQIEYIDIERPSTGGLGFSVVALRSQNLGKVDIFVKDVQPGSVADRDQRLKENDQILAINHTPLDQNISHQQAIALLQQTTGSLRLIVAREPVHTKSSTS

Inadl_6, Q8NI35 = biological target: Inadl_6, Q8NI35
Inadl_6, Q8NI35, sequence (Q8NI35 1058-1167): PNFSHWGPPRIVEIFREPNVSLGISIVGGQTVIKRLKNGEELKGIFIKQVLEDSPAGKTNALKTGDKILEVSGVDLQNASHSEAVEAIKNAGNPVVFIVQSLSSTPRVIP

TJP3_3, O95049 = biological target: T9, TJP3_3, O95049
T9 sequence (O95049 375-456, limits assumed, looked up): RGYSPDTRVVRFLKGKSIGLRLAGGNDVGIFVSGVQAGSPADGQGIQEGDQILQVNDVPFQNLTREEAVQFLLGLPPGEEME

[1] = plain residues with an end cap or a label only (N-terminal biotin on a linker: ahx)
[2] = plain residues with an end cap or a label only (N-terminal biotin on a linker: ttds)
[3] = plain residues with an end cap or a label only (N-terminal biotin on a linker: ado-ado, ttds)

TJP1_2, Q07157, sequence (Q07157 181-274): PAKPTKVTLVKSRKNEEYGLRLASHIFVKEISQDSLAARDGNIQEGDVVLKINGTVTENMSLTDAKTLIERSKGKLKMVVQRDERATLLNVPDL

B1: NHERF1, O14745 (peptide)
chain: SKKNELFSNL
- pKd (TJP1_2, Q07157; [1]): below the threshold
- pKd (LNX2_3, Q8N448; [1]): below the threshold
- pKd (SNTB1, Q13884; [1]): below the threshold
- pKd (GORASP1, Q9BQQ3; [1]): below the threshold
- pKd (Inadl_2, Q8NI35; [1]): below the threshold
- pKd (SCRIB_2, Q14160; [1]): below the threshold
- pKd (DFNB31_3, Q9P202; [1]): below the threshold
- pKd (LIN7C, Q9NUP9; [1]): below the threshold
- pKd (NHERF4_1, Q86UT5-2; [1]): below the threshold
- pKd (MAGI3_2, Q5TCQ9; [1]): below the threshold
- pKd (LNX1_1, Q8TBB1; [1]): below the threshold
- pKd (PICK1, Q9NRD5; [1]): below the threshold
- pKd (DLG5_1, Q8TDM6; [1]): below the threshold
- pKd (GRIP2_5, Q9C0E4; [1]): below the threshold
- pKd (MPP7, Q5T2T1; [1]): below the threshold
- pKd (GRIP2_7, Q9C0E4; [1]): below the threshold
- pKd (HTRA2, O43464; [1]): below the threshold
- pKd (MPDZ_10, O75970; [1]): below the threshold
- pKd (Inadl_10, Q8NI35; [1]): below the threshold
- pKd (TJP1_3, Q07157; [1]): below the threshold
- pKd (GRID2IP_2, A4D2P6; [1]): below the threshold
- pKd (CASK, O14936; [1]): below the threshold
- pKd (GRID2IP_1, A4D2P6; [1]): below the threshold
- pKd (DFNB31_2, Q9P202; [1]): below the threshold
- pKd (GRIP1_7, Q9Y3R0; [1]): below the threshold
- pKd (Inadl_1, Q8NI35; [1]): below the threshold
- pKd (Inadl_6, Q8NI35; [1]): below the threshold
- pKd (TJP3_3, O95049; [1]): below the threshold

B2: HPV82-E6, Q9IR59 (peptide)
chain: PPRQRSETQV
- pKd (TJP1_2, Q07157; [2]): below the threshold
- pKd (LNX2_3, Q8N448; [2]): below the threshold
- pKd (SNTB1, Q13884; [2]): 4.05
- pKd (GORASP1, Q9BQQ3; [2]): below the threshold
- pKd (Inadl_2, Q8NI35; [2]): below the threshold
- pKd (SCRIB_2, Q14160; [2]): 4.26
- pKd (DFNB31_3, Q9P202; [2]): below the threshold
- pKd (LIN7C, Q9NUP9; [2]): 3.64
- pKd (NHERF4_1, Q86UT5-2; [2]): below the threshold
- pKd (MAGI3_2, Q5TCQ9; [2]): 5.68
- pKd (LNX1_1, Q8TBB1; [2]): below the threshold
- pKd (PICK1, Q9NRD5; [2]): below the threshold
- pKd (DLG5_1, Q8TDM6; [2]): below the threshold
- pKd (GRIP2_5, Q9C0E4; [2]): below the threshold
- pKd (MPP7, Q5T2T1; [2]): below the threshold
- pKd (GRIP2_7, Q9C0E4; [2]): below the threshold
- pKd (HTRA2, O43464; [2]): below the threshold
- pKd (MPDZ_10, O75970; [2]): below the threshold
- pKd (Inadl_10, Q8NI35; [2]): below the threshold
- pKd (TJP1_3, Q07157; [2]): below the threshold
- pKd (GRID2IP_2, A4D2P6; [2]): below the threshold
- pKd (CASK, O14936; [2]): below the threshold
- pKd (GRID2IP_1, A4D2P6; [2]): below the threshold
- pKd (DFNB31_2, Q9P202; [2]): below the threshold
- pKd (GRIP1_7, Q9Y3R0; [2]): below the threshold
- pKd (Inadl_1, Q8NI35; [2]): below the threshold
- pKd (Inadl_6, Q8NI35; [2]): below the threshold
- pKd (TJP3_3, O95049; [2]): below the threshold

B3: KCNA4, P22459 (peptide)
chain: SNAKAVETDV
- pKd (TJP1_2, Q07157; [3]): below the threshold
- pKd (LNX2_3, Q8N448; [3]): below the threshold
- pKd (SNTB1, Q13884; [3]): 4.71
- pKd (GORASP1, Q9BQQ3; [3]): below the threshold
- pKd (Inadl_2, Q8NI35; [3]): below the threshold
- pKd (SCRIB_2, Q14160; [3]): 4.67
- pKd (DFNB31_3, Q9P202; [3]): below the threshold
- pKd (LIN7C, Q9NUP9; [3]): below the threshold
- pKd (NHERF4_1, Q86UT5-2; [3]): below the threshold
- pKd (MAGI3_2, Q5TCQ9; [3]): 3.9
- pKd (LNX1_1, Q8TBB1; [3]): 3.77
- pKd (PICK1, Q9NRD5; [3]): below the threshold
- pKd (DLG5_1, Q8TDM6; [3]): below the threshold
- pKd (GRIP2_5, Q9C0E4; [3]): below the threshold
- pKd (MPP7, Q5T2T1; [3]): below the threshold
- pKd (GRIP2_7, Q9C0E4; [3]): below the threshold
- pKd (HTRA2, O43464; [3]): below the threshold
- pKd (MPDZ_10, O75970; [3]): below the threshold
- pKd (Inadl_10, Q8NI35; [3]): below the threshold
- pKd (TJP1_3, Q07157; [3]): below the threshold
- pKd (GRID2IP_2, A4D2P6; [3]): below the threshold
- pKd (CASK, O14936; [3]): below the threshold
- pKd (GRID2IP_1, A4D2P6; [3]): below the threshold
- pKd (DFNB31_2, Q9P202; [3]): below the threshold
- pKd (GRIP1_7, Q9Y3R0; [3]): below the threshold
- pKd (Inadl_1, Q8NI35; [3]): below the threshold
- pKd (Inadl_6, Q8NI35; [3]): below the threshold
- pKd (TJP3_3, O95049; [3]): below the threshold
